Measured values taken from patent US20220275059A1 (HARBOUR ANTIBODIES, published 2022).
Substitutions are numbered along the chain they refer to. Several values for one entry are separate records, joined by “and”; a condition that tells them apart may be missing. Equal entries are not always repeated.

T1: MERS-S1^A domain (MERS-CoV EMC isolate, UniProt K9N5Q8 19-357)
T1 sequence: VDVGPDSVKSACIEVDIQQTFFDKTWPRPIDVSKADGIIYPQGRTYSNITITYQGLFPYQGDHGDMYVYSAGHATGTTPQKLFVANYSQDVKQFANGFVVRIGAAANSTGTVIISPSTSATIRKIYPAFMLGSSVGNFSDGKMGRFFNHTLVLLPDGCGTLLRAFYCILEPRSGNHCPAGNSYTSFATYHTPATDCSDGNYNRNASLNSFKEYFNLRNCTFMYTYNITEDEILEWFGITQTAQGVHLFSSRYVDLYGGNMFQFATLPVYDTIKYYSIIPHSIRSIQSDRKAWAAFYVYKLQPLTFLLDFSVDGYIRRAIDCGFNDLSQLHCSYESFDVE

B1: 7.7g6 (antibody, V domains shown)
VH: QVQLVQTGAEVKKPGSSVKVSCKASGGTFSIYAISWVRQAPRQGLEWMGGIIPIFGTANYAQKFQGRVTITADKSTNTAYMELSRLRSEDTAVYYCAREGDDVLVPTSRGFFDYWGQGTLVTVSS
VL: not shown
B2: 1.6f9 (antibody, V domains shown)
VH: QVQLVQSGAEVKKPGSSVKVSCKASGGAFSAYVITWVRQAPGQGLEWMGGIIPVFGTAHYAQKFQGRVTITADKSTSTAFMELSSLRSEDTAVYYCAREGDIEVVLAGRGYFDYWGQGTLVTVSS
VL: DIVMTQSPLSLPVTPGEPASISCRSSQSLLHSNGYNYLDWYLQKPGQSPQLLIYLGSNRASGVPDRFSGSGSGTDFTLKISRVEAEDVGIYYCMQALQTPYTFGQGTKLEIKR
B3: 1.2g5 (antibody, V domains shown)
VH: QVQLVQSGAEVKKPGSSVKVSCKASGGTFSTYAISWVRQAPGQGLEWMGGIIPIFGTANYAQKFQGRVTIIADKSTNTAYMDLSSLRSEDTAVYYCAREGNLGYDVVTGYSYFVYWGQGTLVTVSS
VL: EIVLTQSPGTLSLSPGERATLSCRASQSVSSSYLAWYQQKPDQVPRLLIYGTSSRATGIPDRFSGSGSGTDFTLTISRLEPEDFAVYYCQQYGRSLTFGGGTKVEIKR
B4: 3.5g6 (antibody, V domains shown)
VH: QVQLQQSGPGLVKPSQTLSLTCAISGHSVSSNSADWNWIRQSPSRGLEWLGRTYCRSKCYNDYAVSVKSRITINPDTSKNQFSLQLNPVTPEDTAVYYCARSLGSGTYPFDSWGQGTLVTVSS
VL: DIQMTQSPSSLSASVGDRVTITCRASQRISRFLNWYQQTPGKAPKFLIYAASSLQSGVPSRFSGSGSGTDFTLTISSLQPEDFATYYCQQSYSTPLTFGGGTTVEIKR
B5: 5.2b7 (antibody, V domains shown)
VH: QVQLVESGGGVVQPGRSLRLSCAASGFTFSSDGMHWVRQAPGKGLEWVAVIWFDGSNKYYADSVKGRFTISRDNSKNTMYLQMNSLRAEDTAVYYCTRDRGITMGRGRYYYYYGMDVWGQGTTVTVSS
VL: EIVMTQSPATLSVSPGERATLSCRASQSVGSNLAWYQQKPGQAPRLLIYGASTRATGIPARFSGSGSGTEFTLTISSLQSEDFAVYYCQQYNNWPLTFGGGTKVEMKR
B6: 5.5e11 (antibody, V domains shown)
VH: QVQLVQSGAEVKKPGSSVKISCKASGGTFSTHAFTWVRQAPGQGLEWIGRIIPIFDTPKYAQKFQGRVTIAADISTSTVFMELSSLRSEDTAVFYCAREGYYISGSYRDAFDIWGQGTMVTVSS
VL: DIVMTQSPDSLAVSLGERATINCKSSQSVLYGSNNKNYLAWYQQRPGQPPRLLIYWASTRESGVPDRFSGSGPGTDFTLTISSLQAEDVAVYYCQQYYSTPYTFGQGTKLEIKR
B7: 1.10f3 (antibody, V domains shown)
VH: QVQLVESGGGVVQPGRSLRLSCKASGFTFRGYGMHWVRQAPGKGLEWVTVIWHDASNKYYVDSVKGRFSISRDNSKNTLYLQMNSLRAEDTAVYYCARDAGLSFDIWGQGTMVTVSS
VL: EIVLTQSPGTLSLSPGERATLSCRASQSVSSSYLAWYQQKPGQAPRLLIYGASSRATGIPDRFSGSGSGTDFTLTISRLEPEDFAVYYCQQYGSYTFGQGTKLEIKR
B8: 2.6h11 (antibody, V domains shown)
VH: EVQLVESGGGLVQPGRSLRLSCTASGFTFGDYVMSWFRQAPGKGLEWVGFIRSKAHGGTTEYAASVNGRFSISRDDSKTIAYLQMNSLKSEDTAVYYCTWLRNDYYYGMDVWGLGTTVTVSS
VL: DIMMTQSPLSLPVTPGEPASISCRSSQRLLHSNGYSYVDWYLQKPGQSPQLLIYLGSDRASGVPDRFSGSGSGTDFTLKISRVEAEDVGVYYCMQTLQTPWTFGQGTKVEIKR
B9: 1.17f10 (antibody, V domains shown)
VH: QVQLVESGGGVVQPGRSLRLSCAASGFTFSKYGMHWVRQAPGKGLEWVANIGYDGSDKYYADSVKGRFTISRDNSKNMLYLQMNSLRAEDTAVYFCARGGWIDDYYYGLDVWGQGTTVTVSS
VL: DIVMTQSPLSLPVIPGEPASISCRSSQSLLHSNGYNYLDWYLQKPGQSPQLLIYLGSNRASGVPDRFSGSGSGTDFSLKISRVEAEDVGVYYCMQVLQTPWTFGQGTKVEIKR
B10: 1.5d6 (antibody, V domains shown)
VH: B9 VH with K31R, N50V, D57N, M78T, Y80S, F95Y, I102N
VL: B8 VL with M3V, T14I, R28S, S36N, V38L, D58N, R82I, V88A, T96V
B11: 1.12g2 (antibody, V domains shown)
VH: B9 VH with K31S, N50V, G52C, A61T, K65R, M78T, A88V, V93M, L109M
VL: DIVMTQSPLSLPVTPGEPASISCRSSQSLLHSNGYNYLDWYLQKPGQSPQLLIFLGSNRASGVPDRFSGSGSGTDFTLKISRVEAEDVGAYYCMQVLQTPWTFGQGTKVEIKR
B12: 1.13a9 (antibody, V domains shown)
VH: EVQLVESGGGLVQPGGSLRLSCAASGFTFSNYWMTWVRQAPGKGLEWVANIKEDGSEKYYVDSVKGRFTLSRDNAKNSLYLQMNSLRAEDTAVYYCAKEGALLWFGVLRPRAFDIWGQGTMVTVSS
VL: DIVMTQSPLSLPVTPGEPASISCRSSQSLLHSNGYNYLDWYLQNPGQSPHLLIYLASNRASGVPDRFSGSGSGTDFTLKISRVEAADVGVYYCMQALQTPYTFGQGTKLEIKR
B13: 1G3 heavy chain-only antibody (antibody, V domains shown)
VH: EVQLVESGGGVVQPGRSLRLSCAASGFTFSSYGMHWVRQAPGKGLEWVAVIWYDGSNKYYADSVKGRFTISRDNSKNTLYLQMNSLRAEDTAVYYCARDERIFGVPDAFDIRGQGTMVTVSS
B14: 1H5 heavy chain-only antibody (antibody, V domains shown)
VH: EVQLVESGGGLVQPGGSLRLSCAASGFTFSSYWMLWVRQAPGEGLVWVSRIDSDGSNTTYADSVKGRFTVSRDNAKNTLYLQMNSLRAEDTAVYYCARSGYGYAFDIWGQGTMVTVSS
B15: 1E10 heavy chain-only antibody (antibody, V domains shown)
VH: EVQLLESGGGWVQPGGSLRLSCAASGFTFSTNAMSWVRQAPGKGLEWVSGISGSGGSTDYADSVKGRFTISRDNSKNTLYLQMNSLRAEDTAVYYCAPRIAVAPDALDIWGQGTMVTVSS

Experiments:
[1] = molecular target: T2, MERS-CoV S S1 subunit (MERS-S1) (MERS-CoV EMC isolate, UniProt K9N5Q8 19-748); experiment: ForteBio Octet kinetic measurement (FIG. 3A)
[2] = molecular target: T2, MERS-CoV S S1 subunit (MERS-S1); experiment: ELISA on coated MERS-S1, OD450 [D]
[3] = molecular target: T3, MERS-S on pseudotyped VSV particles (MERS-S carrying a 16-a.a. cytoplasmic tail truncation) (MERS-CoV, UniProt K9N5Q8 18-1337); experiment: cell-based or functional assay
[4] = molecular target: T3, MERS-S on pseudotyped VSV particles …; experiment: cell-based or functional assay; remark: listed apart in the source
MERS-S1^A domain = molecular target: T1, MERS-S1^A domain; experiment: ELISA on coated MERS-S1^A, OD450 [D]
[5] = molecular target: MERS-S1^B domain (receptor binding domain) (MERS-CoV EMC isolate, UniProt K9N5Q8 358-588); experiment: ELISA on coated MERS-S1^B, OD450 [D]
[6] = molecular target: MERS-S2 ectodomain (MERS-S2^ecto) (MERS-CoV EMC isolate, UniProt K9N5Q8 752-1262)
SARS-CoV spike protein = SARS-CoV spike protein (SARS-CoV, UniProt P59594 15-1182); experiment: ELISA on SARS Secto
peptide 11 = experiment: ELISA on coated overlapping MERS-S2 peptides, A450 [D00032 Fig. 14(B]
peptide 10 = experiment: as above
[7] = molecular target: T2, MERS-CoV S S1 subunit (MERS-S1); experiment: affinity measurement of HCAbs (method not told)

Row | Binder | Kd [1] | IC50, neutralization of MERS-S pseudovirus infectivity (H2L2) [3] | IC50, neutralisation of MERS-S VSV pseudovirus on Vero cells [4] | binding result (SARS-CoV spike protein) | other results
1 | B1 | ~0.36 nM | ~0.00011 µg/mL | 0.001 µg/ml and 0.007 nM |  | EC50 (read off the curve) [2]: ~0.02 µg/mL; IC50, neutralization of MERS-S pseudovirus infectivity (human IgG1) [3]: ~0.02 µg/mL; binding result (MERS-S1^A domain): no binding (tested: about 5x10^5 ng/ml); EC50 (read off the curve) [5]: ~0.02 µg/mL
2 | B2 | ~0.53 nM | ~0.00038 µg/mL | 0.006 µg/ml and 0.04 nM |  | IC50, neutralization of MERS-S pseudovirus infectivity (human IgG1) [3]: ~0.019 µg/mL; binding result (MERS-S1^A domain): no binding (tested: about 5x10^5 ng/ml)
3 | B3 | ~0.081 nM | ~0.00062 µg/mL | 0.002 µg/ml and 0.013 nM |  | IC50, neutralization of MERS-S pseudovirus infectivity (human IgG1) [3]: ~0.007 µg/mL; binding result (MERS-S1^A domain): no binding (tested: about 5x10^5 ng/ml)
4 | B4 |  |  | 2.49 µg/mL | no binding (tested: 25.00 (no unit printed)) | EC50 (read off the curve) [6]: ~0.2 µg/mL; binding result [2]: no binding (tested: about 5x10^5 ng/ml); IC50, MERS-S pseudovirus (human IgG1) [3]: 16.6 nM; binding result (MERS-S1^A domain): no binding (tested: about 5x10^5 ng/ml); binding result [5]: no binding (tested: about 5x10^5 ng/ml)
5 | B5 | ~0.36 nM | ~0.00081 µg/mL |  |  | 
6 | B6 | ~0.3 nM | ~0.0017 µg/mL |  |  | 
7 | B7 | ~4.8 nM |  | > 10 µg/ml and > 66.7 nM |  | EC50 (read off the curve) [2]: ~0.1 µg/mL; EC50 (read off the curve) (MERS-S1^A domain): ~0.07 µg/mL; binding result [5]: no binding (tested: about 5x10^5 ng/ml)
8 | B8 |  |  |  | no binding (tested: 25.00 (no unit printed)) | binding result (peptide 11): no binding; binding result (peptide 10): no binding
9 | B9 |  |  |  | no binding (tested: 25.00 (no unit printed)) | 
10 | B10 |  |  |  | no binding (tested: 25.00 (no unit printed)) | 
11 | B11 |  |  |  | no binding (tested: 25.00 (no unit printed)) | 
12 | B12 |  |  |  | no binding (tested: 25.00 (no unit printed)) | 
13 | B13 |  |  |  |  | Kd [7]: 21.7 nM
14 | B14 |  |  |  |  | Kd [7]: 10.9 nM
15 | B15 |  |  |  |  | Kd [7]: 1 nM
